Assay results from publication PMC3879539, “Control of KirBac3.1 Potassium Channel Gating at the Interface between Cytoplasmic Domains*” (The Journal of Biological Chemistry, 2013).

Biological target: the molecule itself
Assay: crystal structure; purified channel in 14 mM HEGA-10, 6 mg/ml; crystallised in 10% glycerol, 90 mM HEPES pH 7, 20% PEG-400, 5% PEG-4000, 2.5% PEG-8000, 10 mM spermidine, 20 °C; space group P4212, one molecule in the asymmetric unit; 2.46 Å

B1: KirBac3.1 S129R/S205L (natural protein, Magnetospirillum magnetotacticum)
chain: MTGGMKPPARKPRILNSDGSSNITRLGLEKRGWLDDHYHDLLTVSWPVFITLITGLYLVTNALFALAYLACGDVIENARPGSFTDAFFFSVQTMATIGYGKLIPIGPLANTLVTLEALCGMLGLAVAARLIYARFTRPTAGVLFSSRMVISDFEGKPTLMMRLANLRIEQIIEADVHLVLVRSEISQEGMVFRRFHDLTLTRSRLPIFSLSWTVMHPIDHHSPIYGETDETLRNSHSEFLVLFTGHHEAFAQNVHARHAYSCDEIIWGGHFVDVFTTLPDGRRALDLGKFHEIAQ
notes: KirBac3.1, inwardly rectifying potassium (Kir) channel homolog from Magnetospirillum magnetotacticum; the final model contains 283 of 301 residues; The tetramer arises from crystallographic symmetry (one molecule in the asymmetric unit, space group P4212); also called S129R/S205L double mutant; S129R/S205L mutant channel; source: size exclusion column, detergent exchanged to HEGA-10
B1: binds.
